Where a chain is given by its changes, count along the chain named. Numbers in names are those of the source.

This note sets out measurements from US20140322218A1 (Amgen, published 2014).

First the molecules themselves.
T1: ckCDH19(1-43)::FLAG::ckCDH19(44-776), on 293T cells (chicken)
T1 construct: Entry holds leader (1-43), Flag tag and CDH19 part; leader left out; also called Ck EC1-5
T1 chain: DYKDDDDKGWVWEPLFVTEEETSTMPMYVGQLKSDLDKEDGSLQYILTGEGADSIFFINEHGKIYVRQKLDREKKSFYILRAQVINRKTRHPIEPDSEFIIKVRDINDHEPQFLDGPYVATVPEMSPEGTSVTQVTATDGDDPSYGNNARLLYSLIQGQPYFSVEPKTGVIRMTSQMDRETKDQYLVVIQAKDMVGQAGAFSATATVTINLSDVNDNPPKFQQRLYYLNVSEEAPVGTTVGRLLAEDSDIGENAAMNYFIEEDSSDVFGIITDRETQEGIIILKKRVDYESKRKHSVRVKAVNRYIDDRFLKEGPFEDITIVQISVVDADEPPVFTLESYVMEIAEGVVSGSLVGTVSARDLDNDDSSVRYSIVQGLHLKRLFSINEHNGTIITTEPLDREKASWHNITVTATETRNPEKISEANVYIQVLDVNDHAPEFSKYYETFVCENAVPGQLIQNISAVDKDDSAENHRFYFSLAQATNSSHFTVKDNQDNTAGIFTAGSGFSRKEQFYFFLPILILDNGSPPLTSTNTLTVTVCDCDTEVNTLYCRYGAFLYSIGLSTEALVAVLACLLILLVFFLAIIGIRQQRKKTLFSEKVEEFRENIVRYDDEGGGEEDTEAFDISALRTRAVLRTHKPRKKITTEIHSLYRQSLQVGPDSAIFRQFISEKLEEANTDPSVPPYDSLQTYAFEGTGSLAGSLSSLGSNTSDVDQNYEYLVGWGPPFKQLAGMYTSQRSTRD

T2: (1-43)::FLAG::ckCDH19(44-468)::huCDH19(464-772), on 293T cells (human/chicken chimera)
T2 construct: Entry holds leader (1-43), Flag tag and CDH19 part; leader left out; also called Hu EC5 (chicken backbone)
T2 chain: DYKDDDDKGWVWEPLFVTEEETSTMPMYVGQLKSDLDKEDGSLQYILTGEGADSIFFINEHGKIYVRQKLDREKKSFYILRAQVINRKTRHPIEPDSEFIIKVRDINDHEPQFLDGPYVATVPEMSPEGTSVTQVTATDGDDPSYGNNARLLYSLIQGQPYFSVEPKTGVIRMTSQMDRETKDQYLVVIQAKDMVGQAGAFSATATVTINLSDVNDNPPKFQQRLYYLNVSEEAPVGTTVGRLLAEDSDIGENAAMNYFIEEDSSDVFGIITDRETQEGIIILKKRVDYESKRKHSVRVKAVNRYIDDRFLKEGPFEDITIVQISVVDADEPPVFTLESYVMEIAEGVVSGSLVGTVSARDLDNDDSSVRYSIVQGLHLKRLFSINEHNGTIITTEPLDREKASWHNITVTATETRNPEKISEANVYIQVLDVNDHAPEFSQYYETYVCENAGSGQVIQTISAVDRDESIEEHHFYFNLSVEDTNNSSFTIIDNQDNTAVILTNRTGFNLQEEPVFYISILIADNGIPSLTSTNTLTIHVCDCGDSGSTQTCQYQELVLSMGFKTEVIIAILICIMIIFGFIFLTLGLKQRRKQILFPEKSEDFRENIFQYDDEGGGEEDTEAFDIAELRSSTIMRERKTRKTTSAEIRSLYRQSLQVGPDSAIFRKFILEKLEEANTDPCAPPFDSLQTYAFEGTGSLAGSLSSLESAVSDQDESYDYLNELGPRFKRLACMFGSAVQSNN

T3: ckCDH19(1-43)::FLAG::ckCDH19(44-141)::huCDH19(142-249)::ckCDH19(250-776), on 293T cells (human/chicken chimera)
T3 construct: Entry holds leader (1-43), Flag tag and CDH19 part; leader left out; also called Hu EC2 (chicken backbone)
T3 chain: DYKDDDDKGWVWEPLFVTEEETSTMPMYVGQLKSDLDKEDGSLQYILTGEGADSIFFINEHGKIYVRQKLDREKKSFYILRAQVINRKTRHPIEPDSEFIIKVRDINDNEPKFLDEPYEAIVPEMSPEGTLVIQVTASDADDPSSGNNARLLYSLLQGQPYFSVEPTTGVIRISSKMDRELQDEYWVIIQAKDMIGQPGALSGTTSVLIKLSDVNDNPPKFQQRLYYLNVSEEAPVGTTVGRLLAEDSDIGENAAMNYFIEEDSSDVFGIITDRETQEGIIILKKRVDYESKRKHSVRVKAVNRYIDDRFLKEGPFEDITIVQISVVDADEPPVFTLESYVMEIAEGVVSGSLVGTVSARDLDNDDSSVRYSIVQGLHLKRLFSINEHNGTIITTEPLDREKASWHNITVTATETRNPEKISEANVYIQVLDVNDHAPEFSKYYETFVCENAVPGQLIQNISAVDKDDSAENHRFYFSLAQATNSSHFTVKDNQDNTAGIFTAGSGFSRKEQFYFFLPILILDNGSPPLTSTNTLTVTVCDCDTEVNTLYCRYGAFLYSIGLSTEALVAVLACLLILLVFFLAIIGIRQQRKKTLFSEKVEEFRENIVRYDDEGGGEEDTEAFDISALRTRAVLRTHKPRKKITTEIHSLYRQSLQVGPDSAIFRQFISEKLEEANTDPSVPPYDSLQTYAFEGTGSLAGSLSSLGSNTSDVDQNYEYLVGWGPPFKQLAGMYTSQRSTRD

B1: hu anti-<huCDH19> 25F8.1 (1-469)(F90Y) VH::huIgG1z / 25F8.1 (1-235)(K45Q,S102A,D111E) VL::huLLC-C2 (Ab ID 14096) (antibody, V domains shown)
VH: QVQLVQSGAEVKKPGASVKVSCKASGYTFTSYYIHWVRQAPGQGLEWMGIINPSGGSTRYAQKFQGRVTMTRDTSTSTVYMELSSLRSEDTAVYYCARGGIQLWLHFDYWGQGTLVTVSS
VL: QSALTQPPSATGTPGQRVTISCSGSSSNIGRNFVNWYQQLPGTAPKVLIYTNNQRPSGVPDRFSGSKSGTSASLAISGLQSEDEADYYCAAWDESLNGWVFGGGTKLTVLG
notes: Engineered variant of 25F8
B2: hu anti-<huCDH19> 26D1.1 VH::huIgG1z / 26D1.1 VL::huLLC-C2 (Ab ID 13882) (antibody, V domains shown)
VH: B1 VH with G26R, I34M, H35S, N52H, S57D, R59T, R72G, Q102K
VL: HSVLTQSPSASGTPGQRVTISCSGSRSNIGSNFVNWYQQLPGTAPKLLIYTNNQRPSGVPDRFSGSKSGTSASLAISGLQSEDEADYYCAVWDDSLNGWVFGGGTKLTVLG
B3: anti-CDH19 antibody 2G6 (Ab ID 13588) (antibody, human IgG1, lambda, V domains shown)
VH: QVQLVESGGGVVQPGRSLRLSCAASGFTFSSYGMHWVRQAPGKGLEWVAFIWYDGSNKYYADSVKDRFTISRDNSKNTLYLQMKSLRAEDTAVYYCARRAGIIGTIGYYYGMDVWGQGTTVTVSS
VL: SYELTQPPSVSVSPGQTASITCSGDRLGEKYTCWYQQRPGQSPLLVIYQDTKRPSGIPERFSGSNSGNTATLTISGTQAMDEADYYCQAWDSSTVVFGGGTKLTVLG
B4: hu anti-<huCDH19> 23A10.3 (1-474)(L92Q) VH::huIgG1z / 23A10.3 (1-231)(C42S) VL::huLLC-C2 (Ab ID 14077) (antibody, V domains shown)
VH: B3 VH with S31R, M34I, F50V, D66G, K84N, T91S, I103P, I106T
VL: B3 VL with T32V, C33S, R38K, L44I, T51N, R53W
notes: Engineered variant of 23A10
B5: hu anti-<huCDH19> 4A9 VH::huIgG1z / 4A9 VL::huLLC-C1 (Ab ID 13589) (antibody, V domains shown)
VH: QVQLQESGPGLVKPSETLSLTCTVSGGSISGYYWSWIRQPPGKGLEWFAYFSYSGSTNYNPSLKSRVTLSVDTSKNQFSLKLSSVTAADTAVYYCARNWAFHFDFWGQGTLVTVSS
VL: QSVLTQPPSVSGAPGQRVTISCTGSSSNIGTGYAVHWYQQFPGTAPKLLIYGNNNRPSGVPDRFSGSKSGTSASLAITGLQAEDEADYYCQSYDSRLSGWVFGGGTKLTVLG
notes: Recombinant fully human IgG1
B6: hu anti-<huCDH19> 4B10 VH::huIgG1z / 4B10 VL::huKLC (Ab ID 13590) (antibody, V domains shown)
VH: QVQLVESGGGVVQPGRSLRLSCAASGFTFSSYDMHWVRQAPGKGLEWVAVISYDGTNEYYADSVKGRFTISRDTSKNTLYLQMNSLRAEDTAVYYCARERYFDWSFDYWGQGTLVSVSS
VL: EIVLTQSPGTLSLSPGERATLSCRASQSVSNTYLAWYHQRPGQAPRLLIYGASSRATGIPDRFSGSGSGTDFALTISSLEPEDFAVYYCQQYSNSWTFGQGTKVEIKR
B7: anti-CDH19 antibody 4A2 (Ab ID 13592) (antibody, human IgG1, kappa, V domains shown)
VH: QVQLQESGPGLVKPSQTLSLTCTVSGGSISSSGYYWSWIRQHPGKGLEWIGYIYYTGSAYYNPSLKSRVTISVDTSKNQFSLKLSSVTAADTAVYYCARDGSSGWYFQYWGQGTLVTVSS
VL: EIVLTQSPGTLSLSPGERATLSCRASRNISSSYLAWYQQKPGQAPRLLIYGPSSRATGIPDRFSGSGSGTDFTLTISRLEPEDFTVYYCQQYGSSFTFGPGTKVDIKR

One test has as its target T4, ckCDH19(1-43)::FLAG::ckCDH19(44-249)::huCDH19(250-364)::ckCDH19(365-776), on 293T cells (human/chicken chimera).
T4 construct: Entry holds leader (1-43), Flag tag and CDH19 part; leader left out; also called Hu EC3 (chicken backbone)
The test can be described thus: FACS, transfected 293T.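 Also: antibody binding to chimera-expressing cells with 2 mM CaCl2 present, cell-bound Alexa647-labelled antibody read by flow cytometry, mock-transfected cells serving as control.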 For orientation: A flow cytometer gives signals particle by particle.
Experimental: (§1) The following binding assay was completed in presence of 2 mM CaCl2. […] Cells were then washed one time and the amount of cell associated Alexa647-labelled Ab was quantitated by flow cytometry. The experiments included mock transfected controls.
Take B1: the binding result was “no binding (tested: 5 ug/ml)”.
Still for that read-out and setting: the same measure for B2: “no binding (tested: 5 ug/ml)”; for B3: “binds”; for B4: “binds”.
Same read-out and setting: the same measure for B5: “no binding (tested: 5 ug/ml)”; for B6: “binds”.

For the next test, the target named is T1, ckCDH19(1-43)::FLAG::ckCDH19(44-776), …. The test can be described thus: FACS, transfected 293T.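 Also: antibody binding to chimera-expressing cells with 2 mM CaCl2 present, cell-bound Alexa647-labelled antibody read by flow cytometry, mock-transfected cells serving as control.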
Experimental: as §1
B1: the binding result is “no binding (tested: 5 ug/ml)”.
In the case of B2, the binding result is listed as “no binding (tested: 5 ug/ml)”.
Same read-out and setting: the same measure for B7: “no binding (tested: 5 ug/ml)”; for B3: “no binding (tested: 5 ug/ml)”.
Take B4: the binding result was “no binding (tested: 5 ug/ml)”.
The same measure, in the same setting: the entry for B5 is “no binding (tested: 5 ug/ml)”.
The same measure, in the same setting: the entry for B6 is “no binding (tested: 5 ug/ml)”.

Another test addresses T2, (1-43)::FLAG::ckCDH19(44-468)::huCDH19(4 …). Nature of the test: FACS, transfected 293T.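 Also: antibody binding to chimera-expressing cells with 2 mM CaCl2 present, cell-bound Alexa647-labelled antibody read by flow cytometry, mock-transfected cells serving as control.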
Experimental: as §1
Regarding B1, the binding result is reported as “no binding (tested: 5 ug/ml)”.
On the same count and under the same terms, the entry for B2 is “no binding (tested: 5 ug/ml)”.
The same measure, in the same setting: the entry for B7 is “no binding (tested: 5 ug/ml)”; for B3 it is “no binding (tested: 5 ug/ml)”.
Same read-out and setting: the entry for B4 is “no binding (tested: 5 ug/ml)”; for B5 it is “no binding (tested: 5 ug/ml)”.
As to B6, the binding result is recorded as “no binding (tested: 5 ug/ml)”.

A further test has as its target T5, huCDH19(1-43)::FLAG::hu(44-141)::ckCDH19(142-776), on 293T cells (human/chicken chimera).
T5 construct: Entry holds leader (1-43), Flag tag and CDH19 part; leader left out; also called Hu EC1 (chicken backbone)
Nature of the test: FACS, transfected 293T.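 Also: antibody binding to chimera-expressing cells with 2 mM CaCl2 present, cell-bound Alexa647-labelled antibody read by flow cytometry, mock-transfected cells serving as control.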
Experimental: as §1
On to B1, for which the binding result is given as “binds”.
For the molecule B2, the binding result is “binds”.
For the molecule B7, the binding result was “no binding (tested: 5 ug/ml)”.
B3: the binding result is listed as “no binding (tested: 5 ug/ml)”.
The same measure, in the same setting: the same measure for B4: “no binding (tested: 5 ug/ml)”; for B5: “binds”; for B6: “no binding (tested: 5 ug/ml)”.

Another test deals with T3, ckCDH19(1-43)::FLAG::ckCDH19(44-141)::hu …. Nature of the test: FACS, transfected 293T.
Experimental: as §1
Turning to B1, the binding result was “no binding (tested: 5 ug/ml)”.
Same read-out and setting: the same measure for B2: “no binding (tested: 5 ug/ml)”; for B7: “no binding (tested: 5 ug/ml)”.
For B3, the binding result was “no binding (tested: 5 ug/ml)”.
On the same count and under the same terms, the entry for B4 is “no binding (tested: 5 ug/ml)”; for B5 it is “no binding (tested: 5 ug/ml)”; for B6 it is “no binding (tested: 5 ug/ml)”.

The target in the next test is T6, huCDH19(44-772), Flag-tagged, on 293T cells (human, UniProt Q9H159 44-772).
T6 construct: Expressed with native leader (1-43) followed by a Flag tag; leader left out; also called Hu EC1-5
Nature of the test: FACS, transfected 293T.
Experimental: as §1
For B1, the binding result was “binds”.
B2: the binding result is “binds”.
On to B3, for which the binding result is “binds”.
Regarding B4, the binding result is given as “binds”.
Consider B5, for which the binding result is “binds”.
Still for that read-out and setting: the entry for B6 is “binds”.
